This is an account of results in publication PMC6426602, “Structure of Vibrio FliL, a New Stomatin-like Protein That Assists the Bacterial Flagellar Motor Function” (mBio, 2019).

Data set [1] concerns the molecule itself. Briefly: crystal structure; FliLPeri crystal, space group P4(2)2(1)2, 3.4 Å, 20 molecules in the asymmetric unit; sitting drop at 20°C, protein 70 mg/ml in 20 mM Tris-HCl pH 8.0, 150 mM NaCl; reservoir 0.1 M sodium acetate pH 6.0, 25% PEG 200, 0.15 M CaCl2, 1.4% EtOH.
Data set [2] concerns the molecule itself. Briefly: crystal structure; FliLC crystal, space group P6(1), 2.1 Å, two molecules in the asymmetric unit; sitting drop at 20°C, protein 10 mg/ml in 20 mM Tris-HCl pH 8.0, 150 mM NaCl; reservoir 0.1 M sodium acetate pH 4.4, 22.5% PEG 4000, 0.2 M ammonium sulfate.

B1: periplasmic region of polar FliL (FliLPeri) of Vibrio alginolyticus (domain or fragment, UniProt A0A7H8DP68 41-167, looked up)
chain: GSDEPAQAESSQQAQVKASDAAPIAYVNLPQAFVFNVTGDSRDRLVQIKAQLMVRGAENEELARYHSPLIESSMLSTFASATVDQLRSPTGRVELRDRASEDIKAALNAAVGKPVIEKVLFTDFVIQ
notes: polar flagellar FliL of Vibrio alginolyticus, periplasmic region, residues 41 to 167; Residues 41-57 are invisible in the map; also called His6-FliL_(Peri); copies: 10
Turning to B1, in data set [1], the “stoichiometry N” value stood at 10 subunits in a ring.

B2: FliLC, trypsin-resistant core of the periplasmic region of polar FliL (residues 58 to 167) (domain or fragment, Vibrio alginolyticus, UniProt A0A7H8DP68 58-167, looked up)
chain: ASDAAPIAYVNLPQAFVFNVTGDSRDRLVQIKAQLMVRGAENEELARYHSPLIESSMLSTFASATVDQLRSPTGRVELRDRASEDIKAALNAAVGKPVIEKVLFTDFVIQ
notes: polar flagellar FliL of Vibrio alginolyticus, fragment of residues 58 to 167 left after trypsin digestion of FliLPeri; also called FliL_(58-167)
On to B2, for which the binding result in data set [2] is recorded as “binds”.
